The stoichiometry N is a count of units in the complex or per binding partner.

Data on 1 substance can be found in paper PMC12450071.

The experiment has as its target JUNV GP1 (receptor-binding domain), subunit within the GPC on PV membranes (Junin virus strain MC2). Description: cryo-EM structure.

The substance “JUNV GP1 (receptor-binding domain), subunit within the GPC on PV membranes (domain or fragment)” showed a stoichiometry N of 3.
